The target in this test is P22 tailspike protein gp9 (bacteriophage P22, UniProt P12528 1-667). Description: cryo-EM structure.

B1: P22 tail accessory (head completion) protein gp4 (natural protein, bacteriophage P22, UniProt P26746 1-166, looked up)
chain: MQIKTKGDLVRAALRKLGVASDATLTDVEPQSMQDAVDDLEAMMAEWYQDGKGIITGYVFSDDENPPAEGDDHGLRSSAVSAVFHNLACRIAPDYALEATAKIIATAKYGKELLYKQTAISRAKRAPYPSRMPTGSGNSFANLNEWHYFPGEQNADSTTPHDEGNG
Consider B1, for which the binding result is recorded as “binds”.

For the origin of these results see publication PMC1150889 (The EMBO Journal, 2005).
